The target in test [1] is T1, E50K optineurin-GFP (OPTN_(E50K)-GFP) (human, UniProt Q96CV9 1-577, E50K).
T1 construct: optineurin, human, with the glaucoma-associated mutation Glu50 to Lys; also called E50K mutant; not shown: GFP, C-terminal, kept
Briefly: co-IP; Tet-on inducible RGC5 cells, doxycycline 1 ug/ml 16 h, expressing OPTNWT-, OPTN_(E50K)- or OPTN_(L157A)-GFP; lysate precipitated with polyclonal anti-GFP; eluates blotted with monoclonal anti-Rab8 or anti-TfR and anti-GFP; band intensity ratio relative to wild type.

Test [2] has as its target T2, L157A optineurin-GFP (OPTN_(L157A)-GFP) (human, UniProt Q96CV9 1-577, L157A).
T2 construct: optineurin, human, with the point mutation Leu157 to Ala made by site-directed mutagenesis; also called L157A mutant; not shown: GFP, C-terminal, kept
The description is as above.

T2 sequence (Q96CV9 whole entry L157A): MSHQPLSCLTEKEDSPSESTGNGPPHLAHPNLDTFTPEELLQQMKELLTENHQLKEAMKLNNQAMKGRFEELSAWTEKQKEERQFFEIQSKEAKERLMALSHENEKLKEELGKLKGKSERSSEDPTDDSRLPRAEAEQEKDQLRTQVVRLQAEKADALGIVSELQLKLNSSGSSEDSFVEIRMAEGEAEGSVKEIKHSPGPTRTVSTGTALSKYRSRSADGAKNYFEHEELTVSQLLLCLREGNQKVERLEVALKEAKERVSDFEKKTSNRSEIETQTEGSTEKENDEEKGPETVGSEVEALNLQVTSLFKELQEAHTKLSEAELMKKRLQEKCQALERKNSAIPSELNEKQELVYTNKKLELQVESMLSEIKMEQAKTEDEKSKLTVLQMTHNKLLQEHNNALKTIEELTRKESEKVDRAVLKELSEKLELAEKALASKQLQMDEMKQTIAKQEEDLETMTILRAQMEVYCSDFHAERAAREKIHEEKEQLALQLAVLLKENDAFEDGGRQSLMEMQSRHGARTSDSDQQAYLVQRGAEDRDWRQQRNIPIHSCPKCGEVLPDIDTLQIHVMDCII
T1 sequence (Q96CV9 whole entry E50K): as the sequence (Q96CV9 whole entry L157A) above, with E50K, A157L counted along it

On to “endogenous Rab8 of RGC5 cells (from UniProt P35280 1-207) (natural protein)”, for which, in test [1], the fold increase of co-precipitated Rab8 against OPTNWT-GFP (fold higher than wild type) came out at 5. The fold reduction of Rab8 binding against OPTNWT-GFP (fold lower than wild type) in test [2] was 5.

B1: endogenous transferrin receptor (TfR) of RGC5 cells (receptor, rat (endogenous in RGC5), UniProt Q99376 1-761, looked up)
chain: MMDQARSAFSNLFGGEPLSYTRFSLARQVDGDNSHVEMKLAADEEENADSNMKASVRKPKRFNGRLCFATIAVVIFFLIGFMIGYLGYCKRVEQKEECVRLAEAEEADKSENDETEYVPKSSRLFWADLKTLLSEKLNSIEFTDIIKQLSQNTYTPREAGSQKDENLAYYIENLFHDFKFSKVWRDEHYVKIQVKNSVSQNLVTINSGSNIDPVEAPEGYVAFSKAGEVTGKLVHANFGTKKDFEELNYSVNGSLVIVRAGKITFAEKVANAQSFNAIGVLIYMDRNTFPVVEADLQFFGHAHLGTGDPYTPGFPSFNHTQFPPSQSSGLPSIPVQTISRAAAEKLFKNMEGNCPPSWNIDSSCKLELSQNQNVKLTVNNVLKETRILNIFGVIKGYEEPDRYIVVGAQRDAWGPGVAKSSVGTGLLLKLAQVFSDMISKDGFRPSRSIIFASWTAGDYGAVGATEWLEGYLSSLHLKAFTYINLDKVVLGTSNFKVSASPLLYTLMGKIMQDVKHPIDGKYLYRDSNWISKIEELSLDNAAFPFLAYSGIPAVSFCFCEDEDYPYLGTKLDTYEILIQKVPQLNQMVRTAAEVAGQFIIKLTHDIELTLDYEMYNSKLLSFMKDLNQFKADIKDMGLSLQWLYSARGDYFRATSRLTTDFHNAEKTNRFVMREINDRIMKVEYHFLSPYVSPRESPFRHIFWGSGSHTLSALVENLRLRQKNITAFNETLFRNQLALATWTIQGVANALSGDIWNIDNEF
notes: transferrin receptor, endogenous in rat RGC5 cells, detected as a 95-kDa band by mouse monoclonal anti-human TfR (Zymed); The abstract calls RGC5 a rat cell line; also called 95-kDa TfR; source: endogenous, RGC5 lysate
With B1, the “fold increase of co-precipitated TfR against wild type optineurin” value in test [1] (partners not purified) was ~10 fold higher than wild type. For the same molecule, the “fold reduction of co-precipitated TfR against wild type optineurin” value in test [2] (partners not purified) was approximately 5 fold lower than wild type.

(Values after paper PMC2902519, “Impairment of Protein Trafficking upon Overexpression and Mutation of Optineurin” (PLoS ONE, 2010).)
